Assays:
[1] = target: microtubules (polymerized from unlabeled tubulin, Taxol-stabilised)
[2] = target: microtubules (polymerized from unlabeled tubulin, Taxol-stabilised); remark: listed apart in the source

Sequence of microtubules (polymerized from unlabeled tubulin, Taxol-stabilised) (chain, as listed by the source, chain 1 of 2): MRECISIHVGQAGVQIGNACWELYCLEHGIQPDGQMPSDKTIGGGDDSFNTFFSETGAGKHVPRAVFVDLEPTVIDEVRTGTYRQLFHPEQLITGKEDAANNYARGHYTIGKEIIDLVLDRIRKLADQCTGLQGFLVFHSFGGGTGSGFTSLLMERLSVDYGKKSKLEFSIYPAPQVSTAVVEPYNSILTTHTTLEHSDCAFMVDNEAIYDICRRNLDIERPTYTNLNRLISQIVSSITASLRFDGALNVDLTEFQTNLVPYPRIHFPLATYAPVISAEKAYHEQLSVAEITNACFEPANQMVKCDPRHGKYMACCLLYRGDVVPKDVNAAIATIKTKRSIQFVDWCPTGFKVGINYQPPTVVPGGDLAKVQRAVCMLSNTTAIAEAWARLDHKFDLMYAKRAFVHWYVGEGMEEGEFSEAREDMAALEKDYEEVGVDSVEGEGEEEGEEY
Sequence of microtubules (polymerized from unlabeled tubulin, Taxol-stabilised) (chain, as listed by the source, chain 2 of 2): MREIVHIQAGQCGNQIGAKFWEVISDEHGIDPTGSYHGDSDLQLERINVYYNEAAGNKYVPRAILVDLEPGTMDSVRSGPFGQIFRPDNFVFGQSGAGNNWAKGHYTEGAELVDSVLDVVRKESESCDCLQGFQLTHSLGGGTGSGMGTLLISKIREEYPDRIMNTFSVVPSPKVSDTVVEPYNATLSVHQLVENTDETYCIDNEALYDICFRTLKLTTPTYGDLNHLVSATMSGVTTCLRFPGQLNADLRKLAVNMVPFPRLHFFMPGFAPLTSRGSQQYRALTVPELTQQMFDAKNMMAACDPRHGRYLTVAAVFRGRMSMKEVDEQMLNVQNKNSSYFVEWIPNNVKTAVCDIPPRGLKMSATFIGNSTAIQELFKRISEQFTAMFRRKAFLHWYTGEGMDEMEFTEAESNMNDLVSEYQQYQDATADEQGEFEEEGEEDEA

microtubule-stimulated ATPase activity of monomeric dynein, 0–5 μM microtubules: K M for tubulin dimer [1]: 0.5 µM
microtubule-stimulated ATPase activity of monomeric dynein (second series, beside mutant 14): [MT] K M [2]: 0.42 µM
Substance: Saccharomyces cerevisiae cytoplasmic dynein (Dyn1) 1219-4093, monomeric construct, wild-type, P36022 1219-4092
